T1: nectin-1(346t), soluble nectin-1 (UniProt Q15223 31-346)
T1 sequence (looked up): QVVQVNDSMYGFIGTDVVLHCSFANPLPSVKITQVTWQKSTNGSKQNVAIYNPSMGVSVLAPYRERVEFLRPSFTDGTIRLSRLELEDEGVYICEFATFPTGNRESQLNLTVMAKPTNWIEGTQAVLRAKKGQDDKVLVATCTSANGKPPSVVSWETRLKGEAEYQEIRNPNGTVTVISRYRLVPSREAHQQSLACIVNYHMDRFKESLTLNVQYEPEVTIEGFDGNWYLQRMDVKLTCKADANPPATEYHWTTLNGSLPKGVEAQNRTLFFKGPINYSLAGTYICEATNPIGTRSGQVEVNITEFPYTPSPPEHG

B1: gD(23-285t) (domain or fragment)
chain: PVLDQLTDPPGVRRVYHIQAGLPDPFQPPSLPITVYYAVLERACRSVLLNAPSEAPQIVRGASEDVRKQPYNLTIAWFRMGGNCAIPITVMEYTECSYNKSLGACPIRTQPRWNYYDSFSAVSEDNLGFLMHAPAFETAGTYLRLVKINDWTEITQFILEHRAKGSCKYALPLRIPPSACLSPQAYQQGVTVDSIGMLPRFIPENQRTVAVYSLKIAGWHGPKAPYTSTLLPPELSETPNATQPELAPEDPEDSALLEDPVGT
B2: gD(306t), soluble ectodomain of HSV-1 glycoprotein D (domain or fragment)
chain: KYALADASLKMADPNRFRGKDLPVLDQLTDPPGVRRVYHIQAGLPDPFQPPSLPITVYYAVLERACRSVLLNAPSEAPQIVRGASEDVRKQPYNLTIAWFRMGGNCAIPITVMEYTECSYNKSLGACPIRTQPRWNYYDSFSAVSEDNLGFLMHAPAFETAGTYLRLVKINDWTEITQFILEHRAKGSCKYALPLRIPPSACLSPQAYQQGVTVDSIGMLPRFIPENQRTVAVYSLKIAGWHGPKAPYTSTLLPPELSETPNATQPELAPEDPEDSALLEDPVGTVAPQIPPNWHIPSIQDAATPY
B3: gD(285t) (domain or fragment)
chain: KYALADASLKMADPNRFRGKDLPVLDQLTDPPGVRRVYHIQAGLPDPFQPPSLPITVYYAVLERACRSVLLNAPSEAPQIVRGASEDVRKQPYNLTIAWFRMGGNCAIPITVMEYTECSYNKSLGACPIRTQPRWNYYDSFSAVSEDNLGFLMHAPAFETAGTYLRLVKINDWTEITQFILEHRAKGSCKYALPLRIPPSACLSPQAYQQGVTVDSIGMLPRFIPENQRTVAVYSLKIAGWHGPKAPYTSTLLPPELSETPNATQPELAPEDPEDSALLEDPVGT

How the values were obtained:
[1] = biological target: HVEM(200t), soluble herpesvirus entry mediator (UniProt Q92956); assay: SPR
[2] = biological target: T1, nectin-1(346t), soluble nectin-1; assay: SPR

Row | Molecule | Kd [1] | Kd [2]
1 | gD(3C-38C)306t (from UniProt Q69091 26-331) (domain or fragment) | 2390 nM | –
2 | B1 | – | 65.7 nM
3 | B2 | – | 1740 nM
4 | B3 | – | 71.3 nM

Reference: publication PMC3979344 (Virology, 2013)
